Laboratory results reported in publication PMC10250230, “Negatively charged, intrinsically disordered regions can accelerate target search by DNA-binding proteins”.

Key:
[1] = molecular target: Antp HD (control without DERT; Antp HD-MID) (UniProt P02833); assay: fluorescence anisotropy; settings: pH 5.8, 200 mM KCl, Antp Kd: 20 mM potassium succinate pH 5.8, 0.4 mM NaF, HMGB1: 10 mM K phosphate pH 7.5, 1 mM DTT, 1 mM MgCl2, 100 mM KCl, 25 C, Antp stopped-flow: …
Antp HD-DERT11 = Antp HD-DERT11 (UniProt P02833); assay: fluorescence anisotropy; settings: pH 5.8, 200 mM KCl, Antp Kd: 20 mM potassium succinate pH 5.8, 0.4 mM NaF, HMGB1: 10 mM K phosphate pH 7.5, 1 mM DTT, 1 mM MgCl2, 100 mM KCl, 25 C, Antp stopped-flow: …
Antp HD-DERT16 = Antp HD-DERT16 (UniProt P02833); assay: fluorescence anisotropy; settings: pH 5.8, 200 mM KCl, Antp Kd: 20 mM potassium succinate pH 5.8, 0.4 mM NaF, HMGB1: 10 mM K phosphate pH 7.5, 1 mM DTT, 1 mM MgCl2, 100 mM KCl, 25 C, Antp stopped-flow: …
Antp HD-DERT7 = Antp HD-DERT7 (UniProt P02833); assay: fluorescence anisotropy; settings: pH 5.8, 200 mM KCl, Antp Kd: 20 mM potassium succinate pH 5.8, 0.4 mM NaF, HMGB1: 10 mM K phosphate pH 7.5, 1 mM DTT, 1 mM MgCl2, 100 mM KCl, 25 C, Antp stopped-flow: …
HMGB1 full-length = HMGB1 full-length (human, UniProt P09429 1-215); assay: competition (fluorescence anisotropy); 10 mM K phosphate pH 7.5, 1 mM DTT, 1 mM MgCl2, 100 mM KCl, 25 C; apparent Kd; Antp Kd: 20 mM potassium succinate pH 5.8, 0.4 mM NaF, 200 mM KCl; HMGB1: 10 mM K phosphate pH 7.5, 1 mM DTT, 1 mM MgCl2, 100 mM KCl, 25 C; Antp stopped-flow: 1; settings: protein: recombinant
Sequence of HMGB1 full-length (P09429 whole entry): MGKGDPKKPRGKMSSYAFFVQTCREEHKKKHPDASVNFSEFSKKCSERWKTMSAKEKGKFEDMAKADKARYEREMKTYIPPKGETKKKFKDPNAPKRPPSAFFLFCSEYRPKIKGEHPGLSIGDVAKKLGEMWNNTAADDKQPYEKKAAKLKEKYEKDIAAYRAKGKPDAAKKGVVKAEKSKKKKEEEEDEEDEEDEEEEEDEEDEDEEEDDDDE

Sequence of Antp HD-DERT7 (P02833 whole entry): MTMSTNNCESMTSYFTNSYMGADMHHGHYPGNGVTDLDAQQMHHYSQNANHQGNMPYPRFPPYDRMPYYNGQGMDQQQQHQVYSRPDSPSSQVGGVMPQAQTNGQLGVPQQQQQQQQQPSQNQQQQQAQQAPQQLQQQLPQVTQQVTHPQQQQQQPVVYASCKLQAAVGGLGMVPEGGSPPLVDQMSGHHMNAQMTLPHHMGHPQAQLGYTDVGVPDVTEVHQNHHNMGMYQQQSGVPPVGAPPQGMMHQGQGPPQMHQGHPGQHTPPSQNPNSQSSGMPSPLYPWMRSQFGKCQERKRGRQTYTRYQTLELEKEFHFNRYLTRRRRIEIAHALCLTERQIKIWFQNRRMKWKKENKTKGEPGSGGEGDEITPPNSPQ
Sequence of Antp HD-DERT16 (P02833 whole entry): as above
Sequence of Antp HD (control without DERT; Antp HD-MID) (P02833 whole entry): as above
Sequence of Antp HD-DERT11 (P02833 whole entry): as above

## TAMRA-labeled 15-bp Antp recognition DNA
[1]
  Kd: 2.6 nM
Antp HD-DERT11
  Kd: 69 nM
Antp HD-DERT16
  Kd: 61 nM
Antp HD-DERT7
  Kd: 19 nM

B1: unlabeled cisplatin-modified DNA (dsDNA)
DNA 1: CTCTGGACCTTCCTTTCTTC
DNA 2: GAAGAAAGGAAGGTCCAGAG
modifications: cisplatin adduct
HMGB1 full-length
  Kd: 17 ± 3 nM
